{"source": "IntAct's records for PubMed 34606829", "parents": {"B1": {"name": "ALK tyrosine kinase receptor (Homo sapiens), Q9UM73 (parent)", "chain": "MGAIGLLWLLPLLLSTAAVGSGMGTGQRAGSPAAGPPLQPREPLSYSRLQRKSLAVDFVVPSLFRVYARDLLLPPSSSELKAGRPEARGSLALDCAPLLRLLGPAPGVSWTAGSPAPAEARTLSRVLKGGSVRKLRRAKQLVLELGEEAILEGCVGPPGEAAVGLLQFNLSELFSWWIRQGEGRLRIRLMPEKKASEVGREGRLSAAIRASQPRLLFQIFGTGHSSLESPTNMPSPSPDYFTWNLTWIMKDSFPFLSHRSRYGLECSFDFPCELEYSPPLHDLRNQSWSWRRIPSEEASQMDLLDGPGAERSKEMPRGSFLLLNTSADSKHTILSPWMRSSSEHCTLAVSVHRHLQPSGRYIAQLLPHNEAAREILLMPTPGKHGWTVLQGRIGRPDNPFRVALEYISSGNRSLSAVDFFALKNCSEGTSPGSKMALQSSFTCWNGTVLQLGQACDFHQDCAQGEDESQMCRKLPVGFYCNFEDGFCGWTQGTLSPHTPQWQVRTLKDARFQDHQDHALLLSTTDVPASESATVTSATFPAPIKSSPCELRMSWLIRGVLRGNVSLVLVENKTGKEQGRMVWHVAAYEGLSLWQWMVLPLLDVSDRFWLQMVAWWGQGSRAIVAFDNISISLDCYLTISGEDKILQNTAPKSRNLFERNPNKELKPGENSPRQTPIFDPTVHWLFTTCGASGPHGPTQAQCNNAYQNSNLSVEVGSEGPLKGIQIWKVPATDTYSISGYGAAGGKGGKNTMMRSHGVSVLGIFNLEKDDMLYILVGQQGEDACPSTNQLIQKVCIGENNVIEEEIRVNRSVHEWAGGGGGGGGATYVFKMKDGVPVPLIIAAGGGGRAYGAKTDTFHPERLENNSSVLGLNGNSGAAGGGGGWNDNTSLLWAGKSLQEGATGGHSCPQAMKKWGWETRGGFGGGGGGCSSGGGGGGYIGGNAASNNDPEMDGEDGVSFISPLGILYTPALKVMEGHGEVNIKHYLNCSHCEVDECHMDPESHKVICFCDHGTVLAEDGVSCIVSPTPEPHLPLSLILSVVTSALVAALVLAFSGIMIVYRRKHQELQAMQMELQSPEYKLSKLRTSTIMTDYNPNYCFAGKTSSISDLKEVPRKNITLIRGLGHGAFGEVYEGQVSGMPNDPSPLQVAVKTLPEVCSEQDELDFLMEALIISKFNHQNIVRCIGVSLQSLPRFILLELMAGGDLKSFLRETRPRPSQPSSLAMLDLLHVARDIACGCQYLEENHFIHRDIAARNCLLTCPGPGRVAKIGDFGMARDIYRASYYRKGGCAMLPVKWMPPEAFMEGIFTSKTDTWSFGVLLWEIFSLGYMPYPSKSNQEVLEFVTSGGRMDPPKNCPGPVYRIMTQCWQHQPEDRPNFAIILERIEYCTQDPDVINTALPIEYGPLVEEEEKVPVRPKDPEGVPPLLVSQQAKREEERSPAAPPPLPTTSSGKAAKKPTAAEISVRVPRGPAVEGGHVNMAFSQSNPPSELHKVHGSRNKPTSLWNPTYGSWFTEKPTKKNNPIAKKEPHDRGNLGLEGSCTVPPNVATGRLPGASLLLEPSSLTANMKEVPLFRLRHFPCGNVNYGYQQQGLPLEAATAPGAGHYEDTILKSKNSMNQPGP"}, "B2": {"name": "ALK tyrosine kinase receptor (Homo sapiens), Q9UM73 (parent)", "chain": "B1 chain", "partner": "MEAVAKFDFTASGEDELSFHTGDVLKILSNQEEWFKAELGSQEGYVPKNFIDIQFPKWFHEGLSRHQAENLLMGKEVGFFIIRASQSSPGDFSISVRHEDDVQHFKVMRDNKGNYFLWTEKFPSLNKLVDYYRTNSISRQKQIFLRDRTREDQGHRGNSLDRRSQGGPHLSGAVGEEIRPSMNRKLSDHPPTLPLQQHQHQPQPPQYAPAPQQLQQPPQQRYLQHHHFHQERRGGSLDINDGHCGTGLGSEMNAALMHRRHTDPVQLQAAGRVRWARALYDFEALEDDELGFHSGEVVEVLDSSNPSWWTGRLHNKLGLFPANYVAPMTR"}, "B3": {"name": "ALK tyrosine kinase receptor (Homo sapiens), Q9UM73 (parent)", "chain": "B1 chain", "partner": "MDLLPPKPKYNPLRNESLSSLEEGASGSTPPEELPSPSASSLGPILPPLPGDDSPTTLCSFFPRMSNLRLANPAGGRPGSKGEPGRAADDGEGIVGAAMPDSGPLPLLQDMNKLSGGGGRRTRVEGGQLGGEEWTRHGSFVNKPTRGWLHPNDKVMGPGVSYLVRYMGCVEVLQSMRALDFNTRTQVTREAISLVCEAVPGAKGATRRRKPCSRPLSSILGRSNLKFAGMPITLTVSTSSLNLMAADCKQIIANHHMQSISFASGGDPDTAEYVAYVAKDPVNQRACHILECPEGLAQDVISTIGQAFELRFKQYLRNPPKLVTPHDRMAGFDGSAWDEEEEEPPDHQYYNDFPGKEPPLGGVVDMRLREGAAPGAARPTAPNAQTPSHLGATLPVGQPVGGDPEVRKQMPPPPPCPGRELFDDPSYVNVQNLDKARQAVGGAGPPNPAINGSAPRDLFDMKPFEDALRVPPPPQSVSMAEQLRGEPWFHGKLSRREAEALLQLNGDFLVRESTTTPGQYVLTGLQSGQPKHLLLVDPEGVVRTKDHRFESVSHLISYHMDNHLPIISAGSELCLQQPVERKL"}, "B4": {"name": "ALK tyrosine kinase receptor (Homo sapiens), Q9UM73 (parent)", "chain": "B1 chain", "partner": "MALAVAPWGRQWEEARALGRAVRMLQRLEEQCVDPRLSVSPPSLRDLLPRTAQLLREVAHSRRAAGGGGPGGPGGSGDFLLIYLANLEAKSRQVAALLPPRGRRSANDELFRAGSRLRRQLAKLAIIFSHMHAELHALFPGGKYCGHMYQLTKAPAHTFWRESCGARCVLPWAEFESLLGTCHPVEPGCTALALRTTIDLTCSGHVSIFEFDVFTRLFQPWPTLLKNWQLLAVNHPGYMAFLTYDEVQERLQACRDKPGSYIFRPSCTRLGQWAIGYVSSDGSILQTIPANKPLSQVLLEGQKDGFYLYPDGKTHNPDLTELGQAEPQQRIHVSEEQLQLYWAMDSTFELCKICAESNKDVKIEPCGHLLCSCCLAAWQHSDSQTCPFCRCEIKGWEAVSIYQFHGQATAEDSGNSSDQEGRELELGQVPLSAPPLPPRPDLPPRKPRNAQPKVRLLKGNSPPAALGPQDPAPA"}, "B5": {"name": "ALK tyrosine kinase receptor (Homo sapiens), Q9UM73 (parent)", "chain": "B1 chain", "partner": "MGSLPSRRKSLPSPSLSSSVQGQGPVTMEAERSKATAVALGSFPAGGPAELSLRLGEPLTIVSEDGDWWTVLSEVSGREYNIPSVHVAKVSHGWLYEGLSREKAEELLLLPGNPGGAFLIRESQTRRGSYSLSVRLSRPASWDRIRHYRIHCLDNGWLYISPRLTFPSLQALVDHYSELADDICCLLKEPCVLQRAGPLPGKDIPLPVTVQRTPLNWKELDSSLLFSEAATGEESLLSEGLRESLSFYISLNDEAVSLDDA"}}}
{"variants_of": "B1", "conditions": "with abl1_human ABL1, P00519"}
{"variant": "F1245C", "effect of a mutation on the interaction": "increasing interaction strength"}
{"variants_of": "B1", "conditions": "with frk_human FRK"}
{"variant": "F1245C", "effect of a mutation on the interaction": "increasing interaction strength"}
{"variants_of": "B1", "conditions": "with sh24b_human SH2D4B"}
{"variant": "F1245C", "effect of a mutation on the interaction": "increasing interaction strength"}
{"variants_of": "B1", "conditions": "with srms_human SRMS"}
{"variant": "F1245C", "effect of a mutation on the interaction": "increasing interaction strength"}
{"variants_of": "B1", "conditions": "with sta5b_human STAT5B"}
{"variant": "F1245C", "effect of a mutation on the interaction": "increasing interaction strength"}
{"variants_of": "B1", "conditions": "with syk_human KARS1, Q15046"}
{"variant": "F1245C", "effect of a mutation on the interaction": "increasing interaction strength"}
{"variants_of": "B1", "conditions": "with crk_human CRK"}
{"variant": "F1245C", "effect of a mutation on the interaction": "increasing interaction strength"}
{"variants_of": "B1", "conditions": "with fgr_human FGR"}
{"variant": "F1245C", "effect of a mutation on the interaction": "increasing interaction strength"}
{"variants_of": "B1", "conditions": "with grb14_human GRB14, Q14449"}
{"variant": "F1245C", "effect of a mutation on the interaction": "increasing interaction strength"}
{"variants_of": "B1", "conditions": "with hck_human HCK"}
{"variant": "F1245C", "effect of a mutation on the interaction": "increasing interaction strength"}
{"variants_of": "B1", "conditions": "with lyn_human LYN"}
{"variant": "F1245C", "effect of a mutation on the interaction": "increasing interaction strength"}
{"variants_of": "B1", "conditions": "with nck2_human NCK2, O43639"}
{"variant": "F1245C", "effect of a mutation on the interaction": "increasing interaction strength"}
{"variants_of": "B1", "conditions": "with sh2b1_human SH2B1, Q9NRF2"}
{"variant": "F1245C", "effect of a mutation on the interaction": "increasing interaction strength"}
{"variants_of": "B1", "conditions": "with shb_human SHB"}
{"variant": "F1245C", "effect of a mutation on the interaction": "increasing interaction strength"}
{"variants_of": "B1", "conditions": "with socs3_human SOCS3, O14543"}
{"variant": "F1245C", "effect of a mutation on the interaction": "increasing interaction strength"}
{"variants_of": "B1", "conditions": "with stat2_human STAT2, P52630"}
{"variant": "F1245C", "effect of a mutation on the interaction": "increasing interaction strength"}
{"variants_of": "B1", "conditions": "with zap70_human ZAP70, P43403"}
{"variant": "F1245C", "effect of a mutation on the interaction": "increasing interaction strength"}
{"variants_of": "B1", "conditions": "with rack1_human RACK1, P63244"}
{"variant": "F1245C", "effect of a mutation on the interaction": "increasing interaction strength"}
{"variants_of": "B2", "conditions": "with grap2_human GRAP2, O75791"}
{"variant": "F1245C", "effect of a mutation on the interaction": "increasing interaction strength"}
{"variant": "I1250T", "effect of a mutation on the interaction": "decreasing interaction strength"}
{"variant": "L1196M", "effect of a mutation on the interaction": "increasing interaction strength"}
{"variants_of": "B3", "conditions": "with shc1_human SHC1, P29353"}
{"variant": "F1245C", "effect of a mutation on the interaction": "increasing interaction strength"}
{"variant": "L1196M", "effect of a mutation on the interaction": "increasing interaction strength"}
{"variant": "I1250T", "effect of a mutation on the interaction": "decreasing interaction strength"}
{"variants_of": "B4", "conditions": "with cblc_human CBLC"}
{"variant": "F1245C", "effect of a mutation on the interaction": "increasing interaction strength"}
{"variant": "L1196M", "effect of a mutation on the interaction": "increasing interaction strength"}
{"variant": "I1250T", "effect of a mutation on the interaction": "decreasing interaction strength"}
{"variants_of": "B5", "conditions": "with slap2_human SLA2, Q9H6Q3"}
{"variant": "L1196M", "effect of a mutation on the interaction": "increasing interaction strength"}
{"variant": "F1245C", "effect of a mutation on the interaction": "increasing interaction strength"}
{"variant": "I1250T", "effect of a mutation on the interaction": "decreasing interaction strength"}
